# Data published in patent US20260167721A1 (ABLEXIS, published 2026).
# Positions count from the first letter of the chain named.
# B1: CD3 × CD33-BspAb125 (bispecific antibody)
# chain 1: not shown
# chain 2: EVQLVQSGAEVKKPGSSVKVSCKASGYTITDSNIHWVRQAPGQSLEWIGYIYPYNGGTDYNQKFKNRATLTVDNPTNTAYMELSSLRSEDTAFYYCVNGNPWLAYWGQGTLVTVSSASTKGPSVFPLAPSSKSTSGGTAALGCLVKDYFPEPVTVSWNSGALTSGVHTFPAVLQSSGLYSLSSVVTVPSSSLGTQTYICNVNHKPSNTKVDKRVEPKSCDKTHTCPPCPAPEFEGGPSVFLFPPKPKDTLMISRTPEVTCVVVDVSHEDPEVKFNWYVDGVEVHNAKTKPREEQYNSTYRVVSVLTVLHQDWLNGKEYKCKVSNKALPASIEKTISKAKGQPREPQVCTLPPSREEMTKNQVSLSCAVKGFYPSDIAVEWESNGQPENNYKTTPPVLDSDGSFFLVSKLTVDKSRWQQGNVFSCSVMHEALHNRFTQKSLSLSPGK
# chain 3: DIQLTQSPSTLSASVGDRVTITCRASESLDNYGIRFLTWFQQKPGKAPKLLMYAASNQGSGVPSRFSGSGSGTEFTLTISSLQPDDFATYYCQQTKEVPWSFGQGTKVEVKRTVAAPSVFIFPPSDEQLKSGTASVVCLLNNFYPREAKVQWKVDNALQSGNSQESVTEQDSKDSTYSLSSTLTLSKADYEKHKVYACEVTHQGLSSPVTKSFNRGEC
# B2: High affinity Control (Control Humanized anti-CD3 (high affinity) scFv-Fc knob/TM with gemtuzumab arm) (bispecific antibody)
# scFv: EVQLVESGGGLVQPGGSLRLSCAASGFTFSTYAMNWVRQAPGKGLEWVGRIRSKYNNYATYYADSVKGRFTISRDDSKNTLYLQMNSLRAEDTAVYYCVRHGNFGDSYVSWFAYWGQGTLVTVSSGKPGSGKPGSGKPGSGKPGSQAVVTQEPSLTVSPGGTVTLTCGSSTGAVTTSNYANWVQQKPGKSPRGLIGGTNKRAPGVPARFSGSLLGGKAALTISGAQPEDEADYYCALWYSNHWVFGGGTKLTVLGGGGSDKTHTCPPCPAPEFEGGPSVFLFPPKPKDTLMISRTPEVTCVVVDVSHEDPEVKFNWYVDGVEVHNAKTKPREEQYNSTYRVVSVLTVLHQDWLNGKEYKCKVSNKALPASIEKTISKAKGQPREPQVYTLPPCREEMTKNQVSLWCLVKGFYPSDIAVEWESNGQPENNYKTTPPVLDSDGSFFLYSKLTVDKSRWQQGNVFSCSVMHEALHNHYTQKSLSLSPGK
# heavy: B1 chain 2
# light: B1 chain 3
# B3: CD3 × CD33-BspAb71 (bispecific antibody)
# chain 1: EVQLVESGGGLVKPGGSLRLSCAASGFTFSSYSMNWVRQAPGKCLEWVSSISRSSSYIYYADSVKGRFTLSRDNAKNSLYLQMNSLRGEDTAIYYCGRDGKGAIFLDYWGQGTLVTVSSGGGGSGGGGSGGGGSGGGGSSYELTQPPSVSVSPGQTARITCSGDALPKKYAYWYQQKSGQAPVLVIYEDSKRPSGIPERFSGSSSGTMATLTISGAQVEDEADYYCYSTHSSGNHRVFGCGTKLTVLDKTHTCPPCPAPEFEGGPSVFLFPPKPKDTLMISRTPEVTCVVVDVSHEDPEVKFNWYVDGVEVHNAKTKPREEQYNSTYRVVSVLTVLHQDWLNGKEYKCKVSNKALPASIEKTISKAKGQPREPQVYTLPPCREEMTKNQVSLWCLVKGFYPSDIAVEWESNGQPENNYKTTPPVLDSDGSFFLYSKLTVDKSRWQQGNVFSCSVMHEALHNHYTQKSLSLSPGK
# chain 2: B1 chain 2
# chain 3: B1 chain 3
# B4: Low affinity Control (Control Humanized anti-CD3 (low affinity) scFv-Fc knob/TM with gemtuzumab arm) (bispecific antibody)
# scFv: B2 scFv with A113D
# heavy: B1 chain 2
# light: B1 chain 3
# B5: CD3 × CD33-BspAb116 (bispecific antibody)
# chain 1: NFMLTQPHSVSESPGKTVTISCTRSSGSIASNYVQWYQQRPGSSPTTVIYEDNQRPSGVPDRFSGSIDSSSNSASLTISGLKTEDEAYYYCQSFDSSNRVFGCGTKLTVLGGGGSGGGGSGGGGSGGGGSQVQLQESGPGLVKPSQTLSLTCTVSGGSISSGGYYWSWIRQHPGKCLEWIGYIYYSGSTYYNPSLKSRVTISVDTSKDQFSLKLSSVTAADTAVYYCARERKTSLPFDIWGQGTMVTVSSDKTHTCPPCPAPEFEGGPSVFLFPPKPKDTLMISRTPEVTCVVVDVSHEDPEVKFNWYVDGVEVHNAKTKPREEQYNSTYRVVSVLTVLHQDWLNGKEYKCKVSNKALPASIEKTISKAKGQPREPQVYTLPPCREEMTKNQVSLWCLVKGFYPSDIAVEWESNGQPENNYKTTPPVLDSDGSFFLYSKLTVDKSRWQQGNVFSCSVMHEALHNHYTQKSLSLSPGK
# chain 2: B1 chain 2
# chain 3: B1 chain 3
# B6: CD3 × CD33-BspAb37 (bispecific antibody)
# chain 1: not shown
# chain 2: B1 chain 2
# chain 3: B1 chain 3
# B7: CD3 × CD33-BspAb38 (bispecific antibody)
# chain 1: not shown
# chain 2: B1 chain 2
# chain 3: B1 chain 3
# Target: T1, human CD3 (on human Pan-T cells or donor PBMC) (human, UniProt P07766 23-207; P04234 22-171; P09693 23-182; P20963 22-164)
# T1 sequence (P07766 23-207, chain 1 of 4): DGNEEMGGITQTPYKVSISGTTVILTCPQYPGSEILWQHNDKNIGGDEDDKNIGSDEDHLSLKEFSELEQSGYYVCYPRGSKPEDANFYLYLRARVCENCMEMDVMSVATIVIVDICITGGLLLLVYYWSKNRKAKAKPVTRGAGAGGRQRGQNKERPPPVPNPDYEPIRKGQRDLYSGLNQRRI
# T1 sequence (P04234 22-171, chain 2 of 4): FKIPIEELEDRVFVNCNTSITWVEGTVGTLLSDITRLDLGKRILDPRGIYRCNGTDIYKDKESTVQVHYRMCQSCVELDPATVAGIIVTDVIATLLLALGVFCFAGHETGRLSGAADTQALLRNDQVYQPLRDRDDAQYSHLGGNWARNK
# T1 sequence (P09693 23-182, chain 3 of 4): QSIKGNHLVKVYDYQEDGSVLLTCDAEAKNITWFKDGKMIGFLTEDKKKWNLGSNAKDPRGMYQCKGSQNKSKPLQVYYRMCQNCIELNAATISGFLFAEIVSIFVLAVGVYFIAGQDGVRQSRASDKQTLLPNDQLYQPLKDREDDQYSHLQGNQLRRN
# T1 sequence (P20963 22-164, chain 4 of 4): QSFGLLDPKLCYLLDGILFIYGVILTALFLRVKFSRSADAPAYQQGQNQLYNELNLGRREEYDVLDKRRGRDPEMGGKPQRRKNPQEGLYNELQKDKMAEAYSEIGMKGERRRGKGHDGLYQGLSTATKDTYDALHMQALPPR
# Assay: cell-based or functional assay
Binder,"RTCC Assay, Donor 0, EC50","RTCC Assay, Donor 0, gMFI max","RTCC Assay, Donor 1, EC50","RTCC Assay, Donor 1, gMFI max","RTCC Assay, Donor 2, EC50","RTCC Assay, Donor 2, gMFI max","RTCC Assay, Donor 3, EC50","RTCC Assay, Donor 3, gMFI max"
B1,166 pM,26700 gMFI,27 pM,65500 gMFI,49 pM,54600 gMFI,55 pM,84200 gMFI
B2,908 pM,75100 gMFI,40 pM,81700 gMFI,39 pM,82900 gMFI,31 pM,87200 gMFI
B3,479 pM,23900 gMFI,27 pM,63000 gMFI,83 pM,57500 gMFI,377 pM,78600 gMFI
B4,23700 pM,59700 gMFI,5020 pM,122000 gMFI,6680 pM,82100 gMFI,299 pM,104000 gMFI
B5,126 pM,24500 gMFI,45 pM,66000 gMFI,121 pM,52800 gMFI,171 pM,65800 gMFI
B6,172 pM,31600 gMFI,10 pM,70600 gMFI,42 pM,59200 gMFI,53 pM,82300 gMFI
B7,1490 pM,23300 gMFI,413 pM,64800 gMFI,717 pM,50500 gMFI,1720 pM,75800 gMFI

# Target: T1, human CD3 (on human Pan-T cells or …)
# Assay: cell-based or functional assay
# Remark: another data set of the same source
Binder,"Cytokine Release Assay (IFNγ), Donor 0, EC50","Cytokine Release Assay (IFNγ), Donor 0, gMFI max","Cytokine Release Assay (IFNγ), Donor 1, gMFI max","Cytokine Release Assay (IFNγ), Donor 2, EC50","Cytokine Release Assay (IFNγ), Donor 2, gMFI max","Cytokine Release Assay (IFNγ), Donor 3, EC50","Cytokine Release Assay (IFNγ), Donor 3, gMFI max","Cytokine Release Assay (IFNγ), Donor 1, EC50"
B1,~12300 pM,958000 gMFI,4940 gMFI,103 pM,16200 gMFI,63 pM,170000 gMFI,
B2,45 pM,2.82e+06 gMFI,912000 gMFI,2160 pM,1.41e+06 gMFI,126 pM,1.68e+06 gMFI,6990 pM
B3,,812000 gMFI,5380 gMFI,1910 pM,27700 gMFI,,332000 gMFI,
B4,308 pM,2.92e+06 gMFI,129000 gMFI,16400 pM,712000 gMFI,11400 pM,1.08e+06 gMFI,14400 pM
B5,,187000 gMFI,5440 gMFI,177 pM,14100 gMFI,1510 pM,167000 gMFI,
B6,252 pM,1.06e+06 gMFI,5560 gMFI,140 pM,32900 gMFI,1760 pM,317000 gMFI,
B7,8380 pM,555000 gMFI,4320 gMFI,13400 pM,18000 gMFI,6380 pM,98500 gMFI,
